Experimental data from patent US20070243589A1 (Pfizer, published 2007).
Substitutions are numbered along the chain they refer to.

T1: IL-26 (human, UniProt Q9NPH9)
T1 construct: coated on the ELISA plate at 1 µg/ml; also called human IL-26
T1 sequence (cytokine, looked up): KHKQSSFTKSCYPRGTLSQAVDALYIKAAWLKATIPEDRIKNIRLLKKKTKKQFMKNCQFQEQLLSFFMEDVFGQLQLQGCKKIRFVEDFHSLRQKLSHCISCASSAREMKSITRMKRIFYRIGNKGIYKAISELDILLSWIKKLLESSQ

T2: biotinylated IL-22 with an N-terminal His/FLAG tag (bio.IL-22H/F) (human, UniProt Q9GZX6 34-179, biotinylated (site not stated))
T2 construct: not shown: N-terminal His/FLAG tag
T2 sequence: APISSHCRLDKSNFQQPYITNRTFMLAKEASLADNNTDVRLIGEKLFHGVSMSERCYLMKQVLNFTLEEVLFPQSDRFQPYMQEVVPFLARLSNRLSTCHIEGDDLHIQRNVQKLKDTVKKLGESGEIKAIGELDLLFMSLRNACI

T3: human IL-22 (human, UniProt Q9GZX6 34-179)
T3 sequence: T2 sequence

B1: 375G06 IgG (non-germlined) (antibody, V domains shown)
VH: EVQLVQSGAEVKKPGASVKVSCQASGYTFSDYYIHWVRQTPGQGFEWMGWVNPDTGGTRYAQKFQGWVTMTRDMSNTTAYMELPRLRDDDTAVYYCARDLTGYDYYDRWGQGTLVTVSS
VL: QSVLTQPPSMSVAPGKTATITCGGNNFRNKRVHWYQQRPGQAPVLVIYYDSDRPSGIPERFSGSRSGNTATLTISRVEAGDEADFYCQVWDFLADEAMFGGGTKLTVL
notes: IgG
B2: 166B06 germlined IgG (antibody, V domains shown)
VH: QVQLVQSGAEVKKPGASVKVSCKASGYTFSDYYIHWVRQAPGQGLEWMGWVNPDTGGTRYAQKFQGRVTMTRDMSISTAYMELSRLRSDDTAVYYCARDLTGFDPFDIWGQGTLVTVSS
VL: SSVLTQPPSVSVAPGKTARITCGGNNFRNKRVHWYQQKPGQAPVLVIYYDSDRPSGIPERFSGSRSGNTATLTISRVEAGDEADYYCQVWDLFNDNGVFGGGTKLTVLG
B3: 376B10 IgG (non-germlined) (antibody, V domains shown)
VH: B1 VH with R85G, Y105Q, D107T, R108A
VL: QSVLTQPPSVSVAPGKTATITCGGNNFRNKRVHWYQQRPGQAPVLVIYYDSDRPSGIPERFSGSRSGNTATLTISRVEAGDEADFYCSTFDPFTDRPLFGGGTKLTVLG
notes: IgG
B4: 166G05 germlined IgG (antibody, V domains shown)
VH: B2 VH
VL: B2 VL with L92F, F93L, N94T, N96S, V98S
B5: 354A08 germlined IgG (antibody, V domains shown)
VH: QVQLVQSGAEVKKPGASVKVSCKASGYTFTDYYMHWVRQAPGQGLEWVGWINPYTGGAFYAQKFRGRVTMTRDTSISTAYMELSRLRSDDTAVYYCAREPERFGDSTGQVWGRGTLVTVSS
VL: QAVLTQPPSVSGAPGQRVTISCTGSSSNIGAGYGVHWYQQLPGTAPKLLIYGNSNRPSGVPDRFSGSKSGTSASLAITGLQAEDEADYYCYHWDKEQSGYVFGGGTQLTVLG
B6: 356A11 germlined IgG (antibody, V domains shown)
VH: B5 VH with D31N, G57S, R102K, G104D, D105S, S106D, T107D, G108S, Q109D
VL: B5 VL with N53D, Y91Q, H92S, W93Y, K95N, E96S, Q97L
B7: 367D04 IgG (non-germlined) (antibody, V domains shown)
VH: EVQLVESGGGVVRPGGSLRLSCAASGFTFDDYGMNWVRQAPGKGLEWVSGVNWNGGTRDYAASVKGRFTISRDNAKNSLYLQMNSLRAEDTALYYCARGWYSGSPWSLGHWGRGTLVTVSS
VL: QAVLTQPSSVSGSPGQSVTISCTGASGDVGAYNFVSWYQQHPGKTPKLIIYDVNKRPSGVSNRFSGSKSGNTASLTISRLQAEDESDYYCSSYTSRYTTEFGGGTKVTVLG
notes: IgG
B8: 087B03 germlined IgG (antibody, V domains shown)
VH: B7 VH with Y95H, S104A, P105A, S107N, L108M, H110Y
VL: QAALTQPASVSGSPGQSITISCTGASGDVGAYNFVSWYQQHPGKAPKLIIYDVNKRPSGVSNRFSGSKSGNTASLTISGLQAEDEADYYCSSYTSTFSVVFGGGTKLTVLG
B9: GIL68 IgG (non-germlined parent) (antibody, V domains shown)
VH: B1 VH with Y103F, Y105P, Y106F, R108I
VL: B3 VL with S88Q, T89V, F90W, P92S, F93S
notes: Human IgG4 heavy chain constant domain; Cryptate labeled in the HTRF assay; also called cryptate labeled GIL68 IgG
B10: GIL01 IgG (non-germlined parent) (antibody, V domains shown)
VH: EVQLVESGGGLVTPGGSLRLSCAASGFTFSDYYMSWIRQAPGRGLEWVSAISGSGGSTYYADSVKGRITISRDNAKNSLYLQMSSLRSEDTAVYYCARGLWVWDPLDYWGRGTLVTVSS
VL: DIQMTQSPSTLSASIGDRVTITCRASEGIYHWLAWYQQKPGKAPKLLIYKASSLASGAPSRFSGSGSGTDFTLTISSLQPDDFATYYCQQYSNYPLTFGGGTKLEIKR
notes: Human IgG4 heavy chain constant domain
B11: GIL45 IgG (non-germlined parent) (antibody, V domains shown)
VH: QMQLVQSGGGVVQPGRSLRLSCAASGFTFSNYGMYWVRQAPGKGLEWVAHIWYDGSNEKYADSVKGRMTVSRDNSRNTLYLQMNSLRAEDTAVYYCATEQHWITAFDIWGKGTLVTVSS
VL: QSVLTQPASVSGSPGQSITISCTGTSSDVGGYNYVSWYQQHPGKAPKLMIYEGSKRPSGVSNRFSGSKSGNTASLTISGLQAEDEADYYCSSYTTRSTRVFGGGTKLTVLG
notes: as for B10
B12: GIL45 scFv (non-germlined parent) (scFv)
scFv: QMQLVQSGGGVVQPGRSLRLSCAASGFTFSNYGMYWVRQAPGKGLEWVAHIWYDGSNEKYADSVKGRMTVSRDNSRNTLYLQMNSLRAEDTAVYYCATEQHWITAFDIWGKGTLVTVSSGGGGSGAGGSGGGGSQSVLTQPASVSGSPGQSITISCTGTSSDVGGYNYVSWYQQHPGKAPKLMIYEGSKRPSGVSNRFSGSKSGNTASLTISGLQAEDEADYYCSSYTTRSTRVFGGGTKLTVLGAAAH
B13: 166B06 IgG (non-germlined) (antibody, V domains shown)
VH: B1 VH with Y103F, Y105P, Y106F, R108I
VL: B2 VL with S1Q, R19T, K38R, Y85F
B14: 166G05 IgG (non-germlined) (antibody, V domains shown)
VH: B1 VH with Y103F, Y105P, Y106F, R108I
VL: B3 VL with S88Q, T89V, F90W, P92F, F93L, R96S, P97G, L98S
B15: 062A09 IgG (non-germlined) (antibody, V domains shown)
VH: QVQLVESGAEVKKPGASVKVSCKASGYTFTSYGISWVRQAPGQGLEWMGWVSAYTGNTNYAQKFQGRVTMTTDTSTSTAYMELRGLRSDDTAVYYCARDRGYYDAFDIWGQGTLVTVSS
VL: B10 VL with S67F, Y91M, S92G, N93E, P95N, L96A, F98I

What follows are binders tested against T1, IL-26 (assay: ELISA: plate coated with 1 µg/ml human IL-26, IgG at 1 µg/ml, HRP anti-human IgG, A450).
Protocol: (§1) Cross species reactivity of germlined and non-germlined optimized antibodies were determined as follows: ELISA plates (Costar, Cat. #3590) were coated overnight with 1 μg/ml of rat, mouse, or human IL-22 or human IL-26 in PBS buffer. Plates were washed with PBST buffer (0.05% Tween20 in PBS) 3 times, then blocked with 1% BSA (Sigma A8918)/PBST for 1 hr at RT. Antibodies were added at 1 μg/ml, incubated 1 hr at 25° C. […] The plates were incubated for 1 hour at 25° C., then washed with PBST, and developed with TMB (KPL, Cat. #50-76-04). Reaction was stopped with 0.18 M H₂S0₄. Plates were read at OD 450 nm.

Binder | binding result
B1 | no binding (tested: 1 µg/ml (single concentration))
B2 | no binding (tested: 1 µg/ml (single concentration))
B3 | no binding (tested: 1 µg/ml (single concentration))
B4 | no binding (tested: 1 µg/ml (single concentration))
B5 | no binding (tested: 1 µg/ml (single concentration))
B6 | no binding (tested: 1 µg/ml (single concentration))
B7 | no binding (tested: 1 µg/ml (single concentration))
B8 | no binding (tested: 1 µg/ml (single concentration))

The binders below were run against T2, biotinylated IL-22 with an N-terminal … (assay: IL-22 receptor complex inhibition assay (bio.IL-22H/F binding to IL-22 receptor complex, DELFIA), IgG).
Protocol: Potency of purified IgG was verified in the biochemical IL-22 receptor complex inhibition assay as described below. IgG concentrations were titrated in order to obtain potency values.
(§2) Microtiter plates were coated with an IL-22 receptor complex antibody (1 μg/ml in PBS), and incubated for 1.5 hours at room temperature. Plates were washed three times in PBST, and blocked for 1 hour at room temperature with 2% MPBS. After a further 3 washes, diluted cell conditioned medium containing an IL-22 receptor complex was added and incubated overnight at 4° C. Crude scFv supernatants were prepared as described above. The following day, 25 μl of diluted scFv sample and 25 μl of bio.IL-22H/F (6 ng/ml) were added to the washed plates, and incubated for 1.5 hours at room temperature. Plates were washed 3 times in PBST, then binding of bio.IL-22H/F to the IL-22 receptor complex was detected with Europium-Streptavidin and the DELFIA® reagent kit (PerkinElmer). Time Resolved Fluorescence was measured using a Victor 2™ Plate Reader (Perkin Elmer).

IC50 | Binder
2 nM | B9
13 nM | B10
180 nM | B11

These binders were tested against T2, biotinylated IL-22 with an N-terminal … (assay: IL-22 receptor complex inhibition assay (bio.IL-22H/F binding to IL-22 receptor complex, DELFIA), scFv).
Protocol: Both the IL-22/IL-22R binding assay (described above) and the IL-22/IL-22 receptor complex assay (described below) were used. ScFv concentrations were titrated in order to establish the clone potencies as measured by assay IC₅₀ values. These were determined using GraphPad Prism software and four-parameter logistic equation curve fitting.
as §2

IC50 | Binder
358 nM | B12

What follows are binders tested against T3, human IL-22 (assay: cell-based or functional assay).

IC50 (pM) of non-germlined IgG in BaF3-IL-22R proliferation assay | IC50 (pM) of germlined IgG in BaF3-IL-22R proliferation assay | Binder
109 pM |  | B13
 | 169 pM | B2
366 pM |  | B14
 | 109 pM | B4
108 pM |  | B15
 | 79 pM | B5
 | 53 pM | B6
 | 118 pM | B8

The binders below were run against T4, BSA (bovine, UniProt P02769) (assay: ELISA: wells labelled BSA, IgG at 1 µg/ml, HRP anti-human IgG, A450).
T4 construct: background wells labelled BSA; also called bovine serum albumin
T4 sequence (P02769 25-607 limits assumed): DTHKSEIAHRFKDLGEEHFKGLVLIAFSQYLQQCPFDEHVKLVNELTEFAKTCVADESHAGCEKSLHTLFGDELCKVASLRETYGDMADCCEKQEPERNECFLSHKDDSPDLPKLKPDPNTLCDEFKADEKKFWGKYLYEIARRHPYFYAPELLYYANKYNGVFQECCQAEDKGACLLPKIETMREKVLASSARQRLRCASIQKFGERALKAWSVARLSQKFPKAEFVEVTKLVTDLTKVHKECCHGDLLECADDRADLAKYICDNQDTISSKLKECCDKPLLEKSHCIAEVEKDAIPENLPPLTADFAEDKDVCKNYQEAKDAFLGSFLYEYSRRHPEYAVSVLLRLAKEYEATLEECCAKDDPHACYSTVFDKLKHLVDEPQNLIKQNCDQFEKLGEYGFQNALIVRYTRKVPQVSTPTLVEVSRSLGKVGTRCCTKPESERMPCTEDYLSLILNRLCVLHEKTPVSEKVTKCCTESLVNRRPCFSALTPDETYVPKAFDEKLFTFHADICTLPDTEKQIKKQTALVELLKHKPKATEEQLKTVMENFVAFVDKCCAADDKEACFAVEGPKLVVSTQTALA
Protocol: as §1

Binder | binding result
B1 | no binding (tested: 1 µg/ml (single concentration))
B2 | no binding (tested: 1 µg/ml (single concentration))
B3 | no binding (tested: 1 µg/ml (single concentration))
B4 | no binding (tested: 1 µg/ml (single concentration))
B5 | no binding (tested: 1 µg/ml (single concentration))
B6 | no binding (tested: 1 µg/ml (single concentration))
B7 | no binding (tested: 1 µg/ml (single concentration))
B8 | no binding (tested: 1 µg/ml (single concentration))

Target: T3, human IL-22
Experiment: cell-based or functional assay
Remark: another data set of the same source

IC50 of IgG in BaF3-IL-22 proliferation assay | Binder
0.071 nM | B13
0.1 nM | B1
0.097 nM | B14
0.119 nM | B3
0.083 nM | B15
0.079 nM | B5
0.053 nM | B6
0.126 nM | B7
